Experimental data: the supplement of paper PMC10126150
± gives the standard deviation of the averaged measurements.

Test system: ATP
Assay: switch fluorescence ratio, 500 uM ATP over buffer (Cy3 cluster intensity, sum of 5 cycles each) (fold (ratio)); higher = stronger signal-on switching upon ATP binding; sequences stand for … in TCGTCGGCAGCGTCAGATGTGTATAAGAGACAGTTTTTTTTTTTTTTTTTTTTTTTTT…TC
Details: aptamer strand: ATP DNA aptamer (quencher-CACCTGGGGGAGTATTGCGGAGGAAGG + anchor), 100 nM annealed; ATP concentration: 500 uM
In short: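 Exposure to 500 uM ATP lasted 15 min at 22 °C before imaging, and a selection-buffer image was taken beforehand, for Cy3-labelled switching-strand clusters on a modified Illumina MiSeq flow-cell annealed to 100 nM quencher-labelled ATP aptamer. Five buffer/ATP cycles were run with NaOH stripping and re-annealing between them. The fluorescence ratio per cluster is summed target-cycle over summed buffer-cycle Cy3 intensity, averaged per switch-domain sequence. Clusters outside 100-1000 RFU were excluded.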

| Sequence | switch fluorescence ratio |
| --- | --- |
| TTAGAGGGTT | 1.01 ± 0.031 |
| TTAGAGTAGT | 0.988 ± 0.013 |
| TTAGAGTATG | 1.0206 ± 0.0007 |
| TTAGAGTGGA | 0.968 ± 0.024 |
| TTAGATTGGT | 0.99 ± 0.033 |
| TTAGATTTTT | 1.002 ± 0.0087 |
| TTAGCAAAAA | 1.1 ± 0.075 |
| TTAGCATATT | 1.01 ± 0.021 |
| TTAGCCGCGG | 0.997 ± 0.016 |
| TTAGCCTCTT | 0.996 ± 0.032 |
| TTAGCGAGGC | 2.13 ± 1.2 |
| TTAGCGGGA | 1 ± 0.023 |
| TTAGCTACTG | 1.03 ± 0.056 |
| TTAGCTCATT | 1 ± 0.02 |
| TTAGCTTGAG | 1.01 ± 0.013 |
| TTAGCTTGCT | 1.019 ± 0.0035 |
| TTAGGAAGTG | 0.999 ± 0.017 |
| TTAGGAATGG | 1.005 ± 0.0015 |
| TTAGGACTAG | 0.9698 ± 0.0048 |
| TTAGGACTT | 1.02 ± 0.073 |
| TTAGGAGGGT | 0.965 ± 0.037 |
| TTAGGATAGT | 0.998 ± 0.027 |
| TTAGGATCGC | 1.02 ± 0.057 |
| TTAGGATGGC | 1.2 ± 0.28 |
| TTAGGATGTT | 1.0069 ± 0.00069 |

| Sequence | switch fluorescence ratio |
| --- | --- |
| TTAGGCCGGG | 0.998 ± 0.041 |
| TTAGGCGTTC | 0.9892 ± 0.0096 |
| TTAGGCTTGT | 0.996 ± 0.02 |
| TTAGGGACGT | 1.01 ± 0.026 |
| TTAGGGATTG | 1 ± 0.03 |
| TTAGGGCATT | 1.11 ± 0.2 |
| TTAGGGGAGC | 0.976 ± 0.021 |
| TTAGGGGAGT | 1.02 ± 0.066 |
| TTAGGGGCTT | 1.02 ± 0.033 |
| TTAGGGGGCC | 1.07 ± 0.035 |
| TTAGGGGGT | 0.976 ± 0.059 |
| TTAGGGGTAT | 0.996 ± 0.05 |
| TTAGGGGTGT | 1.01 ± 0.022 |
| TTAGGGTGTA | 1.01 ± 0.046 |
| TTAGGGTTGG | 0.99 ± 0.034 |
| TTAGGTGTCC | 1.08 ± 0.057 |
| TTAGGTGTCT | 0.998 ± 0.071 |
| TTAGGTTACT | 1.028 ± 0.0039 |
| TTAGGTTTGG | 1.05 ± 0.15 |
| TTAGTAAAGA | 1.02 ± 0.013 |
| TTAGTAATGT | 1.06 ± 0.072 |
| TTAGTAGCTA | 1.01 ± 0.013 |
| TTAGTATATA | 0.9946 ± 0.0059 |
| TTAGTATCGA | 0.966 ± 0.029 |
| TTAGTATTTT | 1.02 ± 0.087 |

| Sequence | switch fluorescence ratio |
| --- | --- |
| TTAGTCAATT | 0.97 ± 0.0044 |
| TTAGTCAGGG | 1.02 ± 0.024 |
| TTAGTCCCCG | 1.02 ± 0.038 |
| TTAGTGAAGT | 1 ± 0.011 |
| TTAGTGATAC | 2.49 ± 0.42 |
| TTAGTGTACT | 1.07 ± 0.038 |
| TTAGTTAAAT | 1.002 ± 0.0013 |
| TTAGTTAGTT | 0.98 ± 0.016 |
| TTAGTTGA | 0.999 ± 0.015 |
| TTAGTTGAGA | 1 ± 0.045 |
| TTAGTTGGTA | 0.987 ± 0.001 |
| TTAGTTTATC | 1.02 ± 0.027 |
| TTAGTTTCTG | 0.984 ± 0.046 |
| TTAGTTTTCG | 1.01 ± 0.02 |
| TTATAAATAC | 1.91 ± 0.7 |
| TTATAAGACT | 1.044 ± 0.0064 |
| TTATAAGTGG | 0.9907 ± 0.0072 |
| TTATAATAGG | 1.02 ± 0.032 |
| TTATAATATG | 0.9846 ± 0.0035 |
| TTATAATGCC | 0.997 ± 0.078 |
| TTATACAGTG | 1 ± 0.031 |
| TTATACATGT | 0.973 ± 0.055 |
| TTATACCAAG | 1.03 ± 0.023 |
| TTATAGATGG | 0.971 ± 0.077 |
| TTATAGGGCC | 1 ± 0.025 |

| Sequence | switch fluorescence ratio |
| --- | --- |
| TTATAGTATG | 0.99 ± 0.043 |
| TTATAGTATT | 0.957 ± 0.044 |
| TTATAGTGTT | 0.994 ± 0.012 |
| TTATATATCA | 1.01 ± 0.013 |
| TTATATCCTG | 0.974 ± 0.038 |
| TTATATTGAT | 1.017 ± 0.0029 |
| TTATATTTGA | 0.98 ± 0.015 |
| TTATCACACT | 1.02 ± 0.043 |
| TTATCAGGTT | 1 ± 0.031 |
| TTATCAGTTT | 1.03 ± 0.062 |
| TTATCATACG | 1.03 ± 0.024 |
| TTATCATCTT | 1.01 ± 0.032 |
| TTATCCACGA | 1.03 ± 0.033 |
| TTATCCAGGA | 1.006 ± 0.0093 |
| TTATCCGAGA | 1.04 ± 0.019 |
| TTATCGGCGC | 0.999 ± 0.014 |
| TTATCGGGCT | 1.02 ± 0.023 |
| TTATCGGGGT | 1.019 ± 0.008 |
| TTATCGGTCT | 0.9849 ± 0.0065 |
| TTATCGGTTG | 1.03 ± 0.043 |
| TTATCGTGTC | 1.02 ± 0.023 |
| TTATCTAGGA | 1 ± 0.028 |
| TTATGAAGTT | 0.996 ± 0.014 |
| TTATGAATAT | 0.9824 ± 0.005 |
| TTATGAATGC | 0.999 ± 0.055 |

| Sequence | switch fluorescence ratio |
| --- | --- |
| TTATGACAGG | 0.993 ± 0.022 |
| TTATGAGATA | 0.996 ± 0.035 |
| TTATGAGGAC | 1.03 ± 0.056 |
| TTATGAGGCA | 0.978 ± 0.026 |
| TTATGATAGG | 1.016 ± 0.0079 |
| TTATGCCGGT | 1.02 ± 0.068 |
| TTATGCTGTT | 1 ± 0.011 |
| TTATGGAAGT | 0.989 ± 0.025 |
| TTATGGAATT | 1.01 ± 0.044 |
| TTATGGAGCA | 1.09 ± 0.09 |
| TTATGGAGTT | 0.987 ± 0.01 |
| TTATGGCAGA | 1.009 ± 0.01 |
| TTATGGCGGT | 1.063 ± 0.0057 |
| TTATGGCTTC | 0.993 ± 0.029 |
| TTATGGGAGT | 0.966 ± 0.026 |
| TTATGGGCGT | 1.02 ± 0.02 |
| TTATGGGGAT | 0.988 ± 0.019 |
| TTATGGGTAA | 1.03 ± 0.034 |
| TTATGGGTTG | 1.002 ± 0.0039 |
| TTATGGTACA | 0.98 ± 0.019 |
| TTATGTATAT | 1.007 ± 0.0069 |
| TTATGTCGAA | 0.98 ± 0.017 |
| TTATGTCGAG | 0.978 ± 0.034 |
| TTATGTCTTG | 1.01 ± 0.019 |
| TTATGTGGGC | 0.97 ± 0.022 |

| Sequence | switch fluorescence ratio |
| --- | --- |
| TTATGTTTG | 1.012 ± 0.0031 |
| TTATGTTTTA | 0.9965 ± 0.0046 |
| TTATTAATCG | 0.963 ± 0.081 |
| TTATTAATGT | 1.02 ± 0.021 |
| TTATTAGACG | 0.976 ± 0.059 |
| TTATTATAGA | 0.998 ± 0.021 |
| TTATTCCCAG | 1.016 ± 0.0014 |
| TTATTCCTTT | 0.978 ± 0.042 |
| TTATTCGGGG | 0.968 ± 0.054 |
| TTATTCGTTT | 0.98 ± 0.03 |
| TTATTGAATT | 0.998 ± 0.045 |
| TTATTGACGA | 0.992 ± 0.021 |
| TTATTGATTT | 1.017 ± 0.0021 |
| TTATTGCTTT | 1 ± 0.036 |
| TTATTGGGCA | 1.04 ± 0.021 |
| TTATTGGGTC | 1.002 ± 0.01 |
| TTATTGGTAA | 1.0091 ± 0.00034 |
| TTATTGTAAT | 1.029 ± 0.0099 |
| TTATTGTGCG | 1.03 ± 0.034 |
| TTATTTATCG | 0.987 ± 0.026 |
| TTATTTATTC | 1.03 ± 0.037 |
| TTATTTGGTC | 1 ± 0.056 |
| TTATTTGTTA | 1.01 ± 0.041 |
| TTATTTTGGG | 0.99 ± 0.037 |
| TTCAAAATCT | 1.04 ± 0.019 |

| Sequence | switch fluorescence ratio |
| --- | --- |
| TTCAAAGACT | 1.02 ± 0.049 |
| TTCAAATCCC | 1.005 ± 0.0094 |
| TTCAACTGGT | 0.996 ± 0.022 |
| TTCAAGCAAG | 1.15 ± 0.015 |
| TTCAAGGAGT | 1.028 ± 0.0017 |
| TTCAAGTGTA | 1.01 ± 0.022 |
| TTCAATCTGT | 0.968 ± 0.064 |
| TTCAATGTTT | 0.978 ± 0.049 |
| TTCACAACCT | 1.77 ± 0.36 |
| TTCACACTA | 1.07 ± 0.044 |
| TTCACCCGTC | 0.971 ± 0.023 |
| TTCACCGGCA | 1.079 ± 0.0089 |
| TTCACGCTAG | 1.0378 ± 0.00056 |
| TTCACGGGTC | 1.06 ± 0.06 |
| TTCACTCTTT | 1.017 ± 0.0099 |
| TTCAGCGATG | 1.024 ± 0.0081 |
| TTCAGCTTGG | 0.99 ± 0.015 |
| TTCAGGATGG | 1.02 ± 0.017 |
| TTCAGGGCGC | 1.03 ± 0.053 |
| TTCAGGGCTT | 0.986 ± 0.036 |
| TTCAGGGGCA | 1.08 ± 0.033 |
| TTCAGGGGGC | 1.02 ± 0.014 |
| TTCAGGGGTA | 1.02 ± 0.033 |
| TTCAGGGGTT | 1.04 ± 0.068 |
| TTCAGGTATG | 1.01 ± 0.028 |

| Sequence | switch fluorescence ratio |
| --- | --- |
| TTCAGGTGGC | 1.18 ± 0.17 |
| TTCAGGTGTG | 1.142 ± 0.0073 |
| TTCAGGTTTT | 0.99 ± 0.054 |
| TTCAGTATCA | 1.06 ± 0.061 |
| TTCAGTCGAG | 0.979 ± 0.02 |
| TTCAGTTTCG | 1.01 ± 0.027 |
| TTCATAAATT | 1.02 ± 0.023 |
| TTCATAGGCA | 1 ± 0.039 |
| TTCATAGTAC | 1.2 ± 0.22 |
| TTCATCGGGT | 1.01 ± 0.014 |
| TTCATGAATT | 0.9956 ± 0.0056 |
| TTCATGATTG | 0.999 ± 0.011 |
| TTCATGGACA | 0.99 ± 0.014 |
| TTCATGGTGG | 1.01 ± 0.052 |
| TTCATGTGGA | 1.017 ± 0.0047 |
| TTCATTAGGA | 1.01 ± 0.029 |
| TTCATTGGTG | 1.09 ± 0.035 |
| TTCCAAAAAA | 1.1 ± 0.04 |
| TTCCAATTAG | 0.968 ± 0.059 |
| TTCCAGAATT | 0.993 ± 0.051 |
| TTCCAGGTGG | 1.42 ± 0.14 |
| TTCCAGTAAT | 1.01 ± 0.024 |
| TTCCATTCGA | 0.992 ± 0.044 |
| TTCCATTGTA | 1.02 ± 0.031 |
| TTCCCACGGG | 1.64 ± 0.31 |
